Among the data in patent US20180162931A1 are Kd and fold lower affinity than binding to full length human α-CGRP values, retold here.

One assay deals with rat α-CGRP (1-37) (rat). In words: Biacore 37 C, Fab over N-biotinylated rat α-CGRP on SA chip.
For assay [1], the target named is human α-CGRP 1-37 (WT) (human). As to the kind of experiment: Biacore 37 C, Fab over N-biotinylated CGRP on SA chip.
Assay [2] has as its target human α-CGRP fragment 25-37 (human). As to the kind of experiment: Biacore 25 C, Fab over N-biotinylated fragment on SA chip.
Assay [3] deals with human α-CGRP 1-37 (WT) (human). In words: Biacore 25 C, Fab over N-biotinylated CGRP on SA chip.

human α-CGRP 1-37 (WT) (human), sequence (peptide, as listed by the source): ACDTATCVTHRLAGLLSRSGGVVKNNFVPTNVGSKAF
rat α-CGRP (1-37) (rat), sequence (peptide, as listed by the source): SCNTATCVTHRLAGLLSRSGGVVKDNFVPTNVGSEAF

With “anti-CGRP monoclonal antibody 4901 (Sigma, Product No. C7113), Fab fragment”, the Kd with rat α-CGRP (1-37) (rat) was 3.4 nM; in assay [1], 139 nM; in assay [3], 61 nM. In assay [2], this substance returned a fold lower affinity than binding to full length human α-CGRP of 6 fold.
